Data as given in publication doi:10.1101/2025.10.17.682828.
Like-named read-outs stand apart in the source and are kept apart here.

Legend:
[1] = target: Human HSP90β (human) (UniProt P08238); assay: cryo-EM structure
[2] = target: Human HSP90β (human) (UniProt P08238); assay: cryo-EM structure; remark: listed apart in the source

Sequence of Human HSP90β, P08238 3-724 (natural protein; other documents disagree on this pair) (P08238 3-724): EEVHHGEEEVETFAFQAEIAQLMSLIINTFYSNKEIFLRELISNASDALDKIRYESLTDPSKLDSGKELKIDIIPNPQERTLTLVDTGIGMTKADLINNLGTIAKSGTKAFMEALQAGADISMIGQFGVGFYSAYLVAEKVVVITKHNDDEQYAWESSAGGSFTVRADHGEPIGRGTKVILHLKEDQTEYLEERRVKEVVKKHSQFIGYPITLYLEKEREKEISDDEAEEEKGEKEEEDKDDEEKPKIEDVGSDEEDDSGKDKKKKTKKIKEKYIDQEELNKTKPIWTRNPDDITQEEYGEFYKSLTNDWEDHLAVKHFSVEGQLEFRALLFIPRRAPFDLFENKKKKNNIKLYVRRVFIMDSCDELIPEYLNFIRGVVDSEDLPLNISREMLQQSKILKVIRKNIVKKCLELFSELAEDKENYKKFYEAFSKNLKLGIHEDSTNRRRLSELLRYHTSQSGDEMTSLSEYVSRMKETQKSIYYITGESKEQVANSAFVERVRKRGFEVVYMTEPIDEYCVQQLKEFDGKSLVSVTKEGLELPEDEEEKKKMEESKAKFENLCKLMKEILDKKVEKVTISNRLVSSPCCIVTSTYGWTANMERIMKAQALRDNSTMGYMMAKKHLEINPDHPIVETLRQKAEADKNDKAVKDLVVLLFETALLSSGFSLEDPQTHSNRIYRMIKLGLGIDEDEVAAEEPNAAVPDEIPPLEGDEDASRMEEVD

stoichiometry N [1]: 2
stoichiometry N [2]: 2
Substance: Human HSP90β, P08238 3-724 (natural protein; other documents disagree on this pair)
